Laboratory results from US6906179 (GENERAL HOSPITAL, dated 2005).

T1: p105HEF1 (full length HEF1, 105 kD form) (human, UniProt Q14511 1-834, form derived from differential phosphorylation; sites not given)
T1 construct: Transfected into 293 cells; tag not described
T1 sequence (looked up): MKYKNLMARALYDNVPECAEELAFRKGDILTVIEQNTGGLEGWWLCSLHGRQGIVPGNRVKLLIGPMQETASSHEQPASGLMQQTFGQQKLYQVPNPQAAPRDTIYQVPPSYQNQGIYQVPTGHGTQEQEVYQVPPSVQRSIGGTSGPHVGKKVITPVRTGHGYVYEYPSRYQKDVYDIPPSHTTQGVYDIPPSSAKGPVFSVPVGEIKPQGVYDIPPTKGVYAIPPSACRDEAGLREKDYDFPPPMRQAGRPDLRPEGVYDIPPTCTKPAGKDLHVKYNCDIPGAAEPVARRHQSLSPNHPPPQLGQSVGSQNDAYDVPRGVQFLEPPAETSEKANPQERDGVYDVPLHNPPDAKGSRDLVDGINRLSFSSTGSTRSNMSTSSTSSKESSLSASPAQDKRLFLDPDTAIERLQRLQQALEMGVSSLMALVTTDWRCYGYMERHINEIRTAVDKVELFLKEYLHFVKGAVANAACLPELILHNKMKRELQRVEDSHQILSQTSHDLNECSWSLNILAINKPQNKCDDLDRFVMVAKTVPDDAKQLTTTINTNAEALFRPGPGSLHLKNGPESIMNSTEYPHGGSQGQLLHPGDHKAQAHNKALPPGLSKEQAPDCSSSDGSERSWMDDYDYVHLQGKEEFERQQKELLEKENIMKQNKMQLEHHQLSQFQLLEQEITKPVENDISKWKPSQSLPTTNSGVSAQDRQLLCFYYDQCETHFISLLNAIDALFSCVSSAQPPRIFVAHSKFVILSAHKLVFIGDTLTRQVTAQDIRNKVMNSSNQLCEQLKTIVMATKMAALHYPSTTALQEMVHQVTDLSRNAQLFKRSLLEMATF

T2: p115HEF1 (full length HEF1, 115 kD form) (human, UniProt Q14511 1-834, form derived from differential phosphorylation; sites not given)
T2 construct: Transfected into 293 cells; tag not described
T2 sequence (looked up): T1 sequence (looked up)

T3: HEF1 M2 (aa 651-834) (human, UniProt Q14511 651-834)
T3 construct: range 651-834
T3 sequence (looked up): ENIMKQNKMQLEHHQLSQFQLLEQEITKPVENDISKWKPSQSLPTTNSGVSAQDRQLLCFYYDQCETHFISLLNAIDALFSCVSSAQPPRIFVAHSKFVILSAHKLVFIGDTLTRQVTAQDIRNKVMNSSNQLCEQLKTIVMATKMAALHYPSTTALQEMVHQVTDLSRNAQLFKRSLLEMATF

B1: Smad4 (other, UniProt Q13485 1-552, looked up)
chain: MDNMSITNTPTSNDACLSIVHSLMCHRQGGESETFAKRAIESLVKKLKEKKDELDSLITAITTNGAHPSKCVTIQRTLDGRLQVAGRKGFPHVIYARLWRWPDLHKNELKHVKYCQYAFDLKCDSVCVNPYHYERVVSPGIDLSGLTLQSNAPSSMMVKDEYVHDFEGQPSLSTEGHSIQTIQHPPSNRASTETYSTPALLAPSESNATSTANFPNIPVASTSQPASILGGSHSEGLLQIASGPQPGQQQNGFTGQPATYHHNSTTTWTGSRTAPYTPNLPHHQNGHLQHHPPMPPHPGHYWPVHNELAFQPPISNHPAPEYWCSIAYFEMDVQVGETFKVPSSCPIVTVDGYVDPSGGDRFCLGQLSNVHRTEAIERARLHIGKGVQLECKGEGDVWVRCLSDHAVFVQSYYLDREAGRAPGDAVHKIYPSAYIKVFDLRQCHRQMQQQAATAQAAAAAQAAAVAGNIPGPGSVGGIAPAISLSAAAGIGVDDLRRLCILRMSFVKGWGPDYPRQSIKETPCWIEIHLHRALQLLDEVLHTMPIADPQPLD
notes: also called DPC4
B2: Clone S1+12 (other)
chain: EFGTRRMMEGLDDGPDFLSEEDRGLKAINVDLQSDAALQVDISDALSERDKVKFTVHTKSSLPNFKQNEFSVVRQHEEFIWLHDSFVENEDYAGYIIPPAPPRPDFDASREKLQKLGEGEGSMTKEEFTKMKQELEAEYLAIFKKTVAMHEVFLCRVAAHPILRRDLNFHVFLEYNQDLSVRGKKKKKNSRSFGLLRQ
notes: also called sorting nexin-like protein
B3: Smad1 (other, UniProt Q15797 1-465, looked up)
chain: MNVTSLFSFTSPAVKRLLGWKQGDEEEKWAEKAVDALVKKLKKKKGAMEELEKALSCPGQPSNCVTIPRSLDGRLQVSHRKGLPHVIYCRVWRWPDLQSHHELKPLECCEFPFGSKQKEVCINPYHYKRVESPVLPPVLVPRHSEYNPQHSLLAQFRNLGQNEPHMPLNATFPDSFQQPNSHPFPHSPNSSYPNSPGSSSSTYPHSPTSSDPGSPFQMPADTPPPAYLPPEDPMTQDGSQPMDTNMMAPPLPSEINRGDVQAVAYEEPKHWCSIVYYELNNRVGEAFHASSTSVLVDGFTDPSNNKNRFCLGLLSNVNRNSTIENTRRHIGKGVHLYYVGGEVYAECLSDSSIFVQSRNCNYHHGFHPTTVCKIPSGCSLKIFNNQEFAQLLAQSVNHGFETVYELTKMCTIRMSFVKGWGAEYHRQDVTSTPCWIEIHLHGPLQWLDKVLTQMGSPHNPISSVS
notes: also called Smad1 itself
B4: HEF1 M2/N (aa 651-759) (other, human, UniProt Q14511 651-759, looked up)
chain: ENIMKQNKMQLEHHQLSQFQLLEQEITKPVENDISKWKPSQSLPTTNSGVSAQDRQLLCFYYDQCETHFISLLNAIDALFSCVSSAQPPRIFVAHSKFVILSAHKLVFI
notes: range 651-759
B5: Clone S1+27 (SIP2) (other)
chain: KSSPLLIRMEESLNIVKYTAFLYNDQLIWSGLEQDDMRILYKYLTTSLFPRHIEPELAGRDSPIRAEMPGNLQHYGRFLTGPLNLNDPDAKCRFPKIFVNTDDTYEELHLIVYKAMSAAVCFMIDASVHPTLDFCRRLDSIVGPQLTVLASDICEQFNINKRMSGSEKEPQFKFIYFNHMNLAEKSTVHMRKTPSVSLTSVHPDLMKILGDINSDFTRVDEDEEIIVKAMSDYWVVGKKSDRRELYVILNQKNANLIEVNEVKKLCATQFNNIFFLD
notes: Novel clone from the human fetal brain library; also called Clone Smad1+ (S1+)27
B6: Smad3N (aa 1-144) (other, UniProt P84022 1-144, looked up)
chain: MSSILPFTPPIVKRLLGWKKGEQNGQEEKWCEKAVKSLVKKLKKTGQLDELEKAITTQNVNTKCITIPRSLDGRLQVSHRKGLPHVIYCRLWRWPDLHSHHELRAMELCEFAFNMKKDEVCVNPYHYQRVETPVLPPVLVPRHT
notes: range 1-144; also called N-terminal MH1 domain of Smad3
B7: LexA-Smad1 (full length Smad1 fused in frame to the LexA DNA binding domain (1-202) in pEG202) (other)
chain: MKALTARQQEVFDLIRDHISQTGMPPTRAEIAQRLGFRSPNAAEEHLKALARKGVIEIVSGASRGIRLLQEEEEGLPLVGRVAAGEPLLAQQHIEGHYQVDPSLFKPNADFLLRVSGMSMKDIGIMDGDLLAVHKTQDVRNGQVVVARIDDEVTVKRLKKQGNKVELLPENSEFKPIVVDLRQQSFTIEGLAVGVIRNGDWLMNVTSLFSFTSPAVKRLLGWKQGDEEEKWAEKAVDALVKKLKKKKGAMEELEKALSCPGQPSNCVTIPRSLDGRLQVSHRKGLPHVIYCRVWRWPDLQSHHELKPLECCEFPFGSKQKEVCINPYHYKRVESPVLPPVLVPRHSEYNPQHSLLAQFRNLGQNEPHMPLNATFPDSFQQPNSHPFPHSPNSSYPNSPGSSSSTYPHSPTSSDPGSPFQMPADTPPPAYLPPEDPMTQDGSQPMDTNMMAPPLPSEINRGDVQAVAYEEPKHWCSIVYYELNNRVGEAFHASSTSVLVDGFTDPSNNKNRFCLGLLSNVNRNSTIENTRRHIGKGVHLYYVGGEVYAECLSDSSIFVQSRNCNYHHGFHPTTVCKIPSGCSLKIFNNQEFAQLLAQSVNHGFETVYELTKMCTIRMSFVKGWGAEYHRQDVTSTPCWIEIHLHGPLQWLDKVLTQMGSPHNPISSVS
notes: also called Smad1pEG202; full length Smad1 bait
B8: HEF1 M2/M (aa 695-759) (other, human, UniProt Q14511 695-759, looked up)
chain: TTNSGVSAQDRQLLCFYYDQCETHFISLLNAIDALFSCVSSAQPPRIFVAHSKFVILSAHKLVFI
notes: range 695-759
B9: Clone S1+28 (other)
chain: FAVDAKALPQNKPRPLTQEEIAQRRERARQRHAEKLAAAQGQAPLEPTQDGSAIETCPKGDEPRGDEQQVESMTPKPVLQEENNQESFIAFARVFSGVARRGKKIFVLGPKYSPLEFLRRVPLCFSAPPDGLPQVPHMAYCALENLYLLMGRELEYLEEVPPGNVLGIGGLQDFVLKSATLCSLPSCPPFIPLNFEATPIVRVAVEPKHPSEMPQLVKGMKLLNQADPCVQILIQETGEHVLVTAGEVHLQRCLDDLKERFAKIHISVSEPIIPFRETITKPPKVDMVNEEIGKQQKVAVIHQMKEDQSKIPEGIQVDSDGLITITTPNKLATLSVRAMPLPEEVTQILEENSDLIRSMEQLTSSLNEGENTHMIHQKTQEKIWEFKGKLEQHLTGRRWRNIVDQIWSFGPRKCGPNILVNKSEDFQNSVWTGPADKASKEASRYRDLGNSIVSGFQLATLSGPMCEEPLMGVCFVLEKWDLSKFEEQGASDLAKEDRRKMKPVLVEMKTKSYKMAALRPLRRGHHRKENLHSLTAMDLSQDS
notes: Novel clone from the human fetal brain library; also called human homologue of yeast translocation elongation factor
B10: HEF1 M2/C (aa 695-832) (other, human, UniProt Q14511 695-832, looked up)
chain: TTNSGVSAQDRQLLCFYYDQCETHFISLLNAIDALFSCVSSAQPPRIFVAHSKFVILSAHKLVFIGDTLTRQVTAQDIRNKVMNSSNQLCEQLKTIVMATKMAALHYPSTTALQEMVHQVTDLSRNAQLFKRSLLEMA
notes: range 695-832

Tests used:
[1] = biological target: T1, p105HEF1 (full length HEF1, 105 kD form); test: co-immunoprecipitation, transfected 293 cells
[2] = biological target: T2, p115HEF1 (full length HEF1, 115 kD form); test: co-immunoprecipitation, transfected 293 cells
[3] = biological target: B7; test: yeast two-hybrid (data not shown)
[4] = biological target: B7; test: yeast two-hybrid; list of Smad1 interactors
Source text: (§1) From the pooled stock of the transformants, ten million cells are screened on U^-H^-W^-L^- galactose plates containing X-gal. Only those that form blue colonies are picked as candidate positives. […] Methods of sequencing employ such enzymes as the Klenow fragment of DNA polymerase I, Sequenase® (US Biochemical Corp, Cleveland, Ohio), Taq polymerase (Perkin Elmer, Norwalk, Conn.), thermostable T7 polymerase (Amersham, Chicago, Ill.), or combinations of recombinant polymerases and proofreading exonucleases such as the ELONGASE Amplification System (Gibco BRL, Gaithersburg, Md.). Preferably, the process is automated with machines such as the Hamilton Micro Lab 2200 (Hamilton, Reno Nev.), Peltier Thermal Cycler (PTC200; MJ Research, Watertown, Mass.) and the ABI 377 DNA sequencers (Perkin Elmer). […] The transformants are first streaked onto a master plate, then replicated onto two testing plates: U^-H^-W^- glucose plates with X-gal; U^-H^-W^- HW galactose/raffinose plates with X-gal.

[5] = biological target: T4, Uba 80 (ubiquitin fusion protein), clones S1+36 and S1+38 (human, UniProt P62979 1-156); test: list of S1+12 interactors; method not detailed
[6] = biological target: the molecule itself; test: list of S1+12 interactors; method not detailed
[7] = biological target: T5, HsN3 (human, UniProt P28070 1-264, limits assumed); test: list of HsN3 interactors; method not detailed
T5 construct: also called β subunit of 20S proteasome; untagged HsN3 protein

[8] = biological target: B7; test: yeast two-hybrid screen, LexA-Smad1 bait
Source text: as §1

[9] = biological target: B6; test: co-immunoprecipitation, transfected cells
[10] = biological target: T3, HEF1 M2 (aa 651-834); test: co-immunoprecipitation, transfected cells
[11] = biological target: T4, Uba 80 (ubiquitin fusion protein), …; test: yeast two-hybrid screen, LexA-Smad1 bait
Source text: as §1

T5 sequence (P28070 whole entry): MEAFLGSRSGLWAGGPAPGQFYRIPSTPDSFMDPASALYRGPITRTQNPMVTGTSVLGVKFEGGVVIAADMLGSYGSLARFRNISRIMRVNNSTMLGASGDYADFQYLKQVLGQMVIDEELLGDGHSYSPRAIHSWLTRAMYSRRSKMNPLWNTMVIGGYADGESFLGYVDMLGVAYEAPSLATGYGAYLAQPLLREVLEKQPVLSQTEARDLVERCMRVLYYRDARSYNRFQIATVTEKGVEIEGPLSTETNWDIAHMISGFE

Binder: B1
binding result [1]: no binding
binding result [2]: no binding
binding result [3]: binds

Binder: B2
binding result [4]: binds
binding result [5]: binds
binding result [6]: binds
binding result [7]: binds

Binder: B3
binding result [8]: binds

Binder: B4
binding result [9]: no binding

Binder: B5
binding result [4]: binds

Binder: B6
binding result [10]: no binding

Binder: B7
binding result [11]: binds

Binder: B8
binding result [9]: no binding

Binder: B9
binding result [4]: binds

Binder: B10
binding result [9]: no binding
